From the Human Domainome abundance scans (Beltran et al. 2025)

B1: GA-binding protein alpha chain, residues 172 to 250; numbered along this chain, Q06546 (parent)
chain: GYRKEQERLGIPYDPIQWSTDQVLHWVVWVMKEFSMTDIDLTTLNISGRELCSLNQEDFFQRVPRGEILWSHLELLRKY

Variants of: B1
Experiment: abundance fitness (aPCA) (normalised: wild type 0, dead -1); higher = more abundant; growth selection in yeast, the domain comes from the species named
Settings: Homo sapiens

Abundance fitness, by site and new letter:
D21: R -0.096; Y -0.27; M -0.134; I -0.36; T -0.114; N -0.044; P -0.089; H -0.049; W -0.185; K -0.029; G -0.002; S -0.029; F -0.391; A -0.031; L -0.414; V -0.172
T20: R -0.022; E 0.039; H -0.047; F -0.716; G -0.069; S 0.041; M -0.15; A 0.024; Y -0.529; Q -0.043; V -0.03; N 0.103; P -0.013; K 0.043; L -0.318; D -0.101; I -0.101; C -0.118; W -0.516
P12: V -0.724; T -0.56; W -0.98; I -0.912; L -0.955; C -0.494; S -0.229; D -0.34; G -0.577; F -0.949; R -0.969; E -0.478; A -0.3; K -0.762; Y -0.707; N -0.542; M -0.903
W26: Y -0.514; Q -0.875; L -0.886; P -0.947; K -0.906; F -0.404; C -0.866; R -0.855; S -1.13; E -1; M -0.976; T -1.03; I -0.804; H -0.822; A -0.904; N -0.894
P15: Y -0.901; E -1; A -0.641; C -0.742; V -0.243; T -1.07; Q -0.878; I -0.356; W -1.09; G -0.888; M -0.635; H -0.813; S -0.765; R -0.56; F -0.717; N -0.606; L -0.72
G10: M -0.096; N 0.028; W -0.464; R -0.085; Q 0.01; L -0.158; V -0.383; P -0.978; K -0.041; T -0.411
I16: F -0.027; P -0.458; M 0.032; K -0.025; C 0.036; E 0.101; V -0.014; Y 0.037; L -0.012; D -0.116; H 0.099; R -0.013; T -0.065; A -0.021; W -0.016; Q 0.036; N -0.082
Y13: G -0.119; F 0.014; E 0; S -0.029; V -0.109; A -0.085; C -0.138; Q -0.048; M 0.012; N 0.006; K -0.024; T -0.152; P -0.058; H -0.114; I -0.022; D -0.064; L -0.014
Q17: A -0.056; T -0.029; I -0.269; P -0.942; R -0.009; M -0.134; H 0.085; D 0.017; E 0.049; W -0.08; C -0.127; N -0.062; V -0.121; L -0.01; G -0.099; F -0.28; K -0.143
V27: R -0.436; L -0.194; D -0.75; N -0.818; F -0.256; M -0.106; E -0.913; I -0.059; C -0.073; W -0.732; T -0.245; Q -0.271; K -0.478; G -0.037; S -0.171; Y -0.197; P -0.668; H -0.758
S19: A -0.664; R -0.14; L -0.864; T 0.05; Y -0.65; E -0.311; C -0.487; H -0.096; K -0.281; M -0.836; D -0.048; P -0.82; Q -0.225; W -0.927; V -0.996; F -0.849; G -0.34; N -0.053
I11: V -0.342; P -0.928; Q -1.01; L -0.191; C -0.487; H -0.644; R -0.808; A -0.651; K -1.21; Y -0.238; N -0.818; T -0.75; F -0.263; E -0.924; S -0.842; M -0.312; G -0.752; D -0.921
W18: G -0.779; A -0.862; F -0.901; K -0.864; R -0.905; H -1; I -0.915; Q -0.944; S -0.835; D -1.05; N -0.134; L -0.974; Y -0.669; V -0.927; T -0.98; M -0.957
V28: G -0.023; W -0.043; H -0.013; C 0.039; I -0.017; A -0.004; K 0.085; R 0.043; D 0.017; M 0.016; E -0.039; Q 0.027; N -0.1; P -0.921; S -0.035; F -0.129
V23: D -0.873; E -0.951; Q -0.9; Y -0.804; R -0.724; K -0.791; C -0.53; F -0.89; G -0.982; S -0.839; A -0.575; M -0.844; P -0.909; W -1.04; I -0.794; T -0.058; L -0.746; H -0.966
L24: P -1; A -0.083; G -0.109; H 0.029; D -0.171; M -0.011; F -0.119; K -0.038; E -0.088; Y -0.278; I -0.091; T -0.056; N -0.075; S -0.104; C 0.003
W29: F -0.279; L -0.815; S -0.439; T -0.452; A -0.632; V -0.939; Q -0.724; K -0.816; I -1.09; R -0.9; C -0.663; H -0.404; D -0.57; G -0.776; E -0.701
H25: L -0.167; D -0.209; P -0.942; Y -0.002; V -0.219; S -0.27; N -0.048; A -0.25; F -0.194; C -0.266; Q -0.304; T -0.12; W -0.393; M -0.303; I -0.138; R -0.304; G -0.207
Q22: D -0.072; P -0.991; C -0.543; H -0.052; E 0; R -0.998; N -0.039; F -0.792; S -0.646; G -0.88; Y -0.763; T -0.875; W -1; V -0.992; A -0.295; M -0.219; I -0.899; K -0.787
D14: P -0.596; K -0.793; S -0.205; F -1.01; R -0.954; Y -0.57; T -0.868; M -0.784; W -0.651; L -0.766; A -0.369; V -0.856; H -0.147; N -0.072; G -0.805; E -0.15; Q -0.344; C -0.393; I -0.94
